From patent US6607709 (CURATORS OF THE UNIVERSITY OF MISSOURI, dated 2003)
Positions of bridges follow the written chain, without caps; N, C: chain ends. Non-standard residues stand in square brackets, D forms with d. Re(V)O = rhenium(V) oxo core coordinated by cysteine thiolates and amide nitrogens

B1: ReMSH (peptide)
peptide: CEHFRWCKPV
modifications: not fully specified; N-terminal acetyl; D-Phe at position 7 (α-MSH numbering); C-terminal amide; cyclized by a Re(V)O core coordinated by the thiolate sulfurs of Cys4 and Cys10 and the amide nitrogens of Trp9 and Cys10
notes: Nonradioactive rhenium complex of APOMSH; also called rhenium α MSH analog ReMSH; ReMSH complex
B2: ReCCMSH (peptide)
peptide: Ac-CCEH[dF]RWCKPV-NH2
modifications: bridge 1-2-8 via Re(V)O; not fully specified; printed as NAc-Cys-Cys-Glu-His-D-Phe-Arg-Trp-Cys-Lys-Pro-Val-NH2; also: Re(V)O complex via thiolates of Cys3, Cys4, Cys10 and amide N of Cys4
notes: Nonradioactive rhenium complex of the APOMSH analog with an additional N-terminal Cys (Cys3); also called ReCCMSH analog
B3: Cys^4,10, D-Phe^7-α-MSH4-13 (APOMSH) (peptide)
peptide: Ac-CEH[dF]RWCKPV-NH2
modifications: disulfide 1-7
SMILES: CC(=O)N[C@H]1CSSC[C@@H](C(=O)N[C@@H](CCCCN)C(=O)N2CCC[C@H]2C(=O)N[C@H](C(N)=O)C(C)C)NC(=O)[C@H](Cc2c[nH]c3ccccc23)NC(=O)[C@H](CCCNC(=N)N)NC(=O)[C@@H](Cc2ccccc2)NC(=O)[C@H](Cc2c[nH]cn2)NC(=O)[C@H](CCC(=O)O)NC1=O
notes: Synthetic cyclic α-MSH analog without metal; starting peptide for ReMSH; also called metal-free peptide

Experiments:
[1] = target: T1, α-MSH receptor on B16-F1 murine melanoma cells (murine, UniProt Q01727 1-315); experiment: cell-based or functional assay
[2] = target: T1, α-MSH receptor on B16-F1 murine …; experiment: competitive receptor binding on B16-F1 murine melanoma cells, displacement of ^125I-[Nle4, D-Phe7]-α-MSH, 4° C., 8 hours
Protocol: (§1) Quantitative receptor binding assays were carried out following a previously described method (Siegrist W., 1988; Sahm, U. G., 1994). […] The cells were rinsed with PBS, lysed with 1 M NaOH and counted in a 1275 minigamma gamma counter from LKB Wallac.
The bioactivities of APOMSH and the ReMSH complex were assayed by measuring stimulation of melanin production by B16-F1 murine melanoma cells. The $EC50$ values for melanin synthesis by APOMSH and ReMSH were 2.6 ×10^-11 and 5.4 ×10^-10, respectively. […] Receptor binding assays were performed with APOMSH and ReMSH on B16-F1 murine melanoma cells.

[3] = target: T1, α-MSH receptor on B16-F1 murine …; experiment: cell-based or functional assay; remark: listed apart in the source
[4] = target: T1, α-MSH receptor on B16-F1 murine …; experiment: competitive receptor binding on B16-F1 murine melanoma cells
Protocol: as §1
The ^99mTc- and ^188Re-labeled analogs of ReCCMSH were virtually inert to substitution in 10 mM Cys competition assays, while the ^99mTc- and ^188Re-labeled analogs of ReMSH were readily exchanged under the same assay conditions (Table 2). This increased stability of ReCCMSH probably resulted from the presence of an additional sulfur donor atom and from decreased backbone strain in the molecule due to the increased ring size. […] The ability of the ReCCMSH analog to stimulate melanin production was almost identical to APOMSH (Table 3).

T1 sequence (Q01727 whole entry): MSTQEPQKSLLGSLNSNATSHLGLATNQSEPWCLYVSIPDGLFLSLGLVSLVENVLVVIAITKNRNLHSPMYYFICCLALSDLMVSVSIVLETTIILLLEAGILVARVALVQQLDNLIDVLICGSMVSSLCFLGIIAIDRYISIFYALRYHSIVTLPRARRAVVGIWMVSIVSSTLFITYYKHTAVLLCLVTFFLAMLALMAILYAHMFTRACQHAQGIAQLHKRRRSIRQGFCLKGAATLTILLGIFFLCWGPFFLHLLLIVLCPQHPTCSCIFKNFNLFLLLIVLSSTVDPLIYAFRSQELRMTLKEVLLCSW

Binder	EC50 (M), melanin production by B16-F1 murine melanoma cells [1]	Ki [2]	fold decrease in the ability to stimulate melanin production compared to APOMSH [3]	fold decrease in receptor binding affinity compared to APOMSH [4]	fold higher receptor binding affinity than ReMSH [4]
B1	5.4e-10 M	66000 pM	~20 fold	~100 fold	
B2	3.5e-11 M	2900 pM			~25 fold
B3	2.6e-11 M	680 pM			
